# Results: publication PMC11077089, “Molecular basis of A. thaliana KEOPS complex in biosynthesizing tRNA t6A”
# T1: KAE1;BUD32;CGI121;PCC1 (Arabidopsis thaliana;Arabidopsis …, UniProt O49653;Q94K14;Q6NMZ4;Q8GWD7 1-353;1-226;1-172;1-96, |||)
# T1 sequence 1: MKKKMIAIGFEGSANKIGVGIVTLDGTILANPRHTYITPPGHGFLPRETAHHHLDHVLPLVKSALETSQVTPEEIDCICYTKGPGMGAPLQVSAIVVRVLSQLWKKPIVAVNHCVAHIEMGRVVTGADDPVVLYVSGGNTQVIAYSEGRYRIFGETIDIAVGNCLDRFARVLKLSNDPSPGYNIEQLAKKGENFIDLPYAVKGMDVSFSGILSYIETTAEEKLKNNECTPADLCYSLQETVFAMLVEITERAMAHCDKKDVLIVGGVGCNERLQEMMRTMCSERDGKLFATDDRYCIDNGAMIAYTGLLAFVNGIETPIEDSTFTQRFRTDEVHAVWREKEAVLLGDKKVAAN
# T1 sequence 2: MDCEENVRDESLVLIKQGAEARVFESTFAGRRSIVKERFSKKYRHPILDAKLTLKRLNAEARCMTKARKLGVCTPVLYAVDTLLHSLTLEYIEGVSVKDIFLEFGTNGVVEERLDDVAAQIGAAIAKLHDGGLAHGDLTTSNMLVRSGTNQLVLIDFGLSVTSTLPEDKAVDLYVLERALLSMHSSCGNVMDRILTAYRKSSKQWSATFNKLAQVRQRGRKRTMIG
# T1 sequence 3: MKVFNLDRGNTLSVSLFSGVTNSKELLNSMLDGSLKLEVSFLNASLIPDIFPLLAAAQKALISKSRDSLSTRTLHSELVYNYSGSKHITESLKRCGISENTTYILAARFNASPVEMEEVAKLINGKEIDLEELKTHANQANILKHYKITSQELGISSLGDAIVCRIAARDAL
# T1 sequence 4: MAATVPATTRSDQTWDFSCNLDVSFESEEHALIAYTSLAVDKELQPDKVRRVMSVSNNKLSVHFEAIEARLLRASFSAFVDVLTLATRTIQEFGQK
# Target: T1, KAE1;BUD32;CGI121;PCC1
# Experiment: EMSA; 20 uM each; MST: 20 mM PBS pH 7.5, 300 mM NaCl, 0.05% Tween 20, 25 C, 50 nM RNA; EMSA: 20 mM Tris-HCl pH 7.5, 300 mM NaCl, 5 mM b-mercaptoethanol, 20% glycerol, agarose gel in Tris-glycine pH 8.0 (8.5 for FAM-RNA), 4 C
# Conditions: protein: recombinant;recombinant;recombinant;recombinant; tags: none (6His on partner PCC1);none (6His on partner CGI121);6His (C-term);6His (C-term); chain copies: 2;2;2;2; tRNA cloverleaf
row,Binder,binding result
1,tRNAIleUAU (structured_RNA) RNA: GCUCCCGUAGCUCAGUUGGUUAGAGCGUUGGUCUUAUGAGCCGAAGGUCGCGGGUUCGAGCCCCGCCGGAAGCACCA,binds
2,tRNASerGCU (structured_RNA) RNA: GUCGCUUUGGCCGAGUGGUUAAGGCGUGUUCCUGCUAAGUACAUGGGGUUUCCCCGCGAGAGUUCGAAUCUGUCAGGCGACGCCA,binds
3,tRNAAsnGUU (structured_RNA) RNA: GCUGGAAUAGCUCAGUAGGUUUAGAGCGUGUGGCUGUUAACCUCAAGGUCGGAGGUUCGACCCCUCCUUUCAGCGCCA,binds
4,tRNAArgUCU (structured_RNA) RNA: GCGCCCGUGGCCUAAUGGAUAAGGCGUUUGACUUCUAAUCAAACGAUUGUGGGUUCGAGUCCCACCGGGCGUGCCA,binds
5,tRNALysUUU (structured_RNA) RNA: GCCGUCUUAGCUCAGCGGUAGAGCGCGUGGCUUUUAACCACGUGGCCGUGGGUUCGAUCCCCACAGACGGCGCCA,binds
6,tRNAThrCGU (structured_RNA) RNA: GCCUCCGUAGCAUAGUGGUAUUGCGUUCGCUUCGUAAGCGAAAGGUCGUGAGUUCGAUCCUCACCGUAGGCUCCA,binds
7,tRNAIleAAU (structured_RNA) RNA: GGCCUAUUAGCUCAGUUGGUUAGAGCGUCGUGCUAAUAACGCGAAGGUCACAGGUUCGAUCCCUGUAUAGGCCACCA,binds
